B1: PspCN (TIGR4 37-179), fragment of PspC (CbpA) of S. pneumoniae strain TIGR4 (other)
chain: ATENEGATQVPTSSNRANESQAEQGEQPKKLDSERDKARKEVEEYVKKIVGESYAKSTKKRHTITVALVNELNNIKNEYLNKIVESTSESQLQILMMESRSKVDEAVSKFEKDSSSSSSSDSSTKPEASDTAKPNKPTEPGEK
notes: not shown: N-terminal hexaHis-SUMO tag used for capture on the NTA chip
B2: Human complement factor H purified from plasma (other)
chain: EDCNELPPRRNTEILTGSWSDQTYPEGTQAIYKCRPGYRSLGNVIMVCRKGEWVALNPLRKCQKRPCGHPGDTPFGTFTLTGGNVFEYGVKAVYTCNEGYQLLGEINYRECDTDGWTNDIPICEVVKCLPVTAPENGKIVSSAMEPDREYHFGQAVRFVCNSGYKIEGDEEMHCSDDGFWSKEKPKCVEISCKSPDVINGSPISQKIIYKENERFQYKCNMGYEYSERGDAVCTESGWRPLPSCEEKSCDNPYIPNGDYSPLRIKHRTGDEITYQCRNGFYPATRGNTAKCTSTGWIPAPRCTLKPCDYPDIKHGGLYHENMRRPYFPVAVGKYYSYYCDEHFETPSGSYWDHIHCTQDGWSPAVPCLRKCYFPYLENGYNQNYGRKFVQGKSIDVACHPGYALPKAQTTVTCMENGWSPTPRCIRVKTCSKSSIDIENGFISESQYTYALKEKAKYQCKLGYVTADGETSGSITCGKDGWSAQPTCIKSCDIPVFMNARTKNDFTWFKLNDTLDYECHDGYESNTGSTTGSIVCGYNGWSDLPICYERECELPKIDVHLVPDRKKDQYKVGEVLKFSCKPGFTIVGPNSVQCYHFGLSPDLPICKEQVQSCGPPPELLNGNVKEKTKEEYGHSEVVEYYCNPRFLMKGPNKIQCVDGEWTTLPVCIVEESTCGDIPELEHGWAQLSSPPYYYGDSVEFNCSESFTMIGHRSITCIHGVWTQLPQCVAIDKLKKCKSSNLIILEEHLKNKKEFDHNSNIRYRCRGKEGWIHTVCINGRWDPEVNCSMAQIQLCPPPPQIPNSHNMTTTLNYRDGEKVSVLCQENYLIQEGEEITCKDGRWQSIPLCVEKIPCSQPPQIEHGTINSSRSSQESYAHGTKLSYTCEGGFRISEENETTCYMGKWSSPPQCEGLPCKSPPEISHGVVAHMSDSYQYGEEVTYKCFEGFGIDGPAIAKCLGEKWSHPPSCIKTDCLSLPSFENAIPMGEKKDVYKAGEQVTYTCATYYKMDGASNVTCINSRWTGRPTCRDTSCVNPPTVQNAYIVSRQMSKYPSGERVRYQCRSPYEMFGDEEVMCLNGNWTEPPQCKDSTGKCGPPPPIDNGDITSFPLSVYAPASSVEYQCQNLYQLEGNKRITCRNGQWSEPPKCLHPCVISREIMENYNIALRWTAKQKLYSRTGESVEFVCKRGYRLSSRSHTLRTTCWDGKLEYPTCAKR
notes: also called Plasma CFH; plasma-purified CFH
B3: Plasma CFH:PspCN complex (other)
chain 1: B2 chain
chain 2: ATENEGSTQAATSSNMAKTEHRKAAKQVVDEYIEKMLREIQLDRRKHTQNVALNIKLSAIKTKYLRELNVLEEKSKDELPSEIKAKLDAAFEKFKKDTLKPGEK
notes: also called PspCN:CFH
B4: His-SUMO-Cys-PspCN (other)
chain: CGSGSGSGSGGATENEGSTQAATSSNMAKTEHRKAAKQVVDEYIEKMLREIQLDRRKHTQNVALNIKLSAIKTKYLRELNVLEEKSKDELPSEIKAKLDAAFEKFKKDTLKPGEK
notes: also called Cys-PspCN (as SPR ligand); not shown: N-terminal His-SUMO tag
B5: His-SUMO-PspCN-Cys (other)
chain: ATENEGSTQAATSSNMAKTEHRKAAKQVVDEYIEKMLREIQLDRRKHTQNVALNIKLSAIKTKYLRELNVLEEKSKDELPSEIKAKLDAAFEKFKKDTLKPGEKGSGSGSGSGGC
notes: also called PspCN-Cys (as SPR ligand); not shown: N-terminal His-SUMO tag
B6: PspC (52-140) (other)
chain: MAKTEHRKAAKQVVDEYIEKMLREIQLDRRKHTQNVALNIKLSAIKTKYLRELNVLEEKSKDELPSEIKAKLDAAFEKFKKDTLKPGEK

Tests used:
[1] = target: Human C3b (plasma-purified) (human) (UniProt P01024); assay: SPR (Biacore), coupled C3b
[2] = target: Human C3d (plasma-purified) (human) (UniProt P01024); assay: SPR (Biacore), coupled C3d
[3] = target: Human complement factor H purified from plasma (human) (UniProt P08603); assay: SPR, immobilised TIGR4 fragment, FH as analyte
[4] = target: Human complement factor H purified from plasma (human) (UniProt P08603); assay: SPR
[5] = target: Human complement factor H purified from plasma (human) (UniProt P08603); assay: SPR, TIGR4 fragment on NTA chip, CFH as analyte
[6] = target: B2; assay: SPR, TIGR4 fragment on NTA chip, CFH as analyte
[7] = target: T1, Human C3b (plasma-purified) (human, UniProt P01024 23-667; P01024 749-1663); assay: SPR (Biacore), coupled C3b, TIGR4 experiment
[8] = target: T1, Human C3b (plasma-purified); assay: SPR, amine-coupled C3b on C1 chip, equilibrium 1:1 fit
Method: The sensor chip was regenerated by 2×30 s injections of 1 M NaCl. Data were analysed using the Biacore evaluation software and equilibrium affinity parameters were calculated using a 1:1 binding affinity model.
Commercially sources plasma-purified human C3b, C3c and C3d were immobilized using standard amine coupling to different channels of the same C1 SPR chip (Biacore).

[9] = target: T2, Human C3d (plasma-purified) (human, UniProt P01024 1002-1303); assay: SPR, immobilised C3d
T2 construct: domain: TED; also called TED of C3b

[10] = target: T1, Human C3b (plasma-purified); assay: SPR, amine-coupled C3b on C1 chip
[11] = target: T1, Human C3b (plasma-purified); assay: SPR, immobilised C3b
[12] = target: B2; assay: SPR, His-SUMO-Cys-PspCN as ligand, plasma-purified CFH as analyte, kinetic analysis
[13] = target: B2; assay: SPR, His-SUMO-PspCN-Cys as ligand, plasma-purified CFH as analyte, kinetic analysis
[14] = target: B2; assay: SPR, immobilised PspC fragment, CFH flowed over

T1 sequence (P01024 23-667 limits assumed, chain 1 of 2): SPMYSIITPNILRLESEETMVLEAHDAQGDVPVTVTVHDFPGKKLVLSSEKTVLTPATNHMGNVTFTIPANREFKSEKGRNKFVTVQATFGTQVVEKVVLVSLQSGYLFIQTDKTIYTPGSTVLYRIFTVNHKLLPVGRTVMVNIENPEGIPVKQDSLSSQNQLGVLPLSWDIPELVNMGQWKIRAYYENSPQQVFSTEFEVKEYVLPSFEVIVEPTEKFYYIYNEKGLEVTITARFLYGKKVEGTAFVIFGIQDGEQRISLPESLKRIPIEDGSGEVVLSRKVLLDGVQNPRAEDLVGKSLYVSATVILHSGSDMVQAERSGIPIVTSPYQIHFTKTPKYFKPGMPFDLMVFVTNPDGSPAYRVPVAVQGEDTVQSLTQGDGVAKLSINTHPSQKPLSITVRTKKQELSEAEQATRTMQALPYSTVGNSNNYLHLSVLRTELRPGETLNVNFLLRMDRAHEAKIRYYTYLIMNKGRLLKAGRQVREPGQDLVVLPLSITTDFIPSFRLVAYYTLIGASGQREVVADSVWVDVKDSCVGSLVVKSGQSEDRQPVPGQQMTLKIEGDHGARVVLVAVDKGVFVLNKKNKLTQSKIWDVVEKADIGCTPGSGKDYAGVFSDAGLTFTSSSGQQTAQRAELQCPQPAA
T1 sequence (P01024 749-1663 limits assumed, chain 2 of 2): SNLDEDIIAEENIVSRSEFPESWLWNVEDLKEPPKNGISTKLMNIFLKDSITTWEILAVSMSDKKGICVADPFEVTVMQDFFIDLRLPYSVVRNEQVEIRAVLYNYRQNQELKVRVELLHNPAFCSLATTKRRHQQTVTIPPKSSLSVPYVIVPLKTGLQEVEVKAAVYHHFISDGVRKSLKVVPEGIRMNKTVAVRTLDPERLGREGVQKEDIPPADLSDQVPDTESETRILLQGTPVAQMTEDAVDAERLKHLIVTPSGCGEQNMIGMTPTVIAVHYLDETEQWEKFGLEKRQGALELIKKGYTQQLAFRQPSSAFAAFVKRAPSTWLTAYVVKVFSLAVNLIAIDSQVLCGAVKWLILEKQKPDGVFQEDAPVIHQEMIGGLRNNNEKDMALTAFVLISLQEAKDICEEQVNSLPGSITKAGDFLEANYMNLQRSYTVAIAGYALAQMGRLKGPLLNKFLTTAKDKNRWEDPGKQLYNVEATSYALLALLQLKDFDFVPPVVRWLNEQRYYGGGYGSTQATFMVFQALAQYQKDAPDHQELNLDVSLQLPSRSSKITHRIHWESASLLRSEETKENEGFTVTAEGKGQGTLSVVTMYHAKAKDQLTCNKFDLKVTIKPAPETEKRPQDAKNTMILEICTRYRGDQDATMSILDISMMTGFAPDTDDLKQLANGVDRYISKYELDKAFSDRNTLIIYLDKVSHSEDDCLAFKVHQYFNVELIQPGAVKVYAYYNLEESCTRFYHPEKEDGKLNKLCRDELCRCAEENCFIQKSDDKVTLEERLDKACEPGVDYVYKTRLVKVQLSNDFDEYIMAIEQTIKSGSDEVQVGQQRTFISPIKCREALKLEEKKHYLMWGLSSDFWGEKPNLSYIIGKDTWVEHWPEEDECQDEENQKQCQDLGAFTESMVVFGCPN
Human C3b (plasma-purified) (human), sequence (P01024 23-667 limits assumed, chain 1 of 2): as the sequence (P01024 23-667 limits assumed, chain 1 of 2) above
Human C3b (plasma-purified) (human), sequence (P01024 749-1663 limits assumed, chain 2 of 2): as the sequence (P01024 749-1663 limits assumed, chain 2 of 2) above
Human C3d (plasma-purified) (human), sequence (P01024 1002-1303 limits assumed): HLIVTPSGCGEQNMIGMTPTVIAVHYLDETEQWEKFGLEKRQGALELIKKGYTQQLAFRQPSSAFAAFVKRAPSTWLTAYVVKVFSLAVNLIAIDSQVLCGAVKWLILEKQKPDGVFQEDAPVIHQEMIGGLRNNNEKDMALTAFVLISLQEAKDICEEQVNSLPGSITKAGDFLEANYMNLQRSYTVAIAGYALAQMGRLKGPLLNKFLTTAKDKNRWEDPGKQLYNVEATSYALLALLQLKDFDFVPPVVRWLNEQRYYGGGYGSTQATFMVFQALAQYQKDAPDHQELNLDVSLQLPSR
T2 sequence (P01024 1002-1303 limits assumed): as above

## CFH:TIGR4 (37-179) complex
[1]
  Kd: 280 nM
[2]
  Kd: 1200 nM

## PspCN (TIGR4 68-148), fragment of PspC (CbpA) of S. pneumoniae strain TIGR4
[3]
  Kd: < 0.018 nM
[4]
  Kd: 0.001 pM
[5]
  Kd: < 0.018 nM

## B1
[6]
  Kd: < 0.01 nM

## B2
[7]
  Kd: 550 nM
[8]
  Kd: 490 nM

## B3
[9]
  fold better binding than intact CFH: > 50 fold
[10]
  fold better binding than CFH alone: 3 fold
[8]
  Kd: 160 nM
[11]
  fold difference in affinity against CFH: 4 fold

## B4
[12]
  Kd: ~0.0001 nM

## B5
[13]
  Kd: ~0.0001 nM

## B6
[14]
  binding result: binds

— patent publication US20190100563A1 (UNIVERSITY COURT OF THE UNIVERSITY OF EDINBURGH, published 2019)
